Experimental data taken from article PMC9978625, “Activation of protein arginine methyltransferase 1 and subsequent extension of moth lifespan is effected by the ROS/JNK/CREB signaling axis”.

Target: T1, CREB (Har-CREB) (Helicoverpa armigera, UniProt A0A3G1CVR7 1-265)
T1 sequence: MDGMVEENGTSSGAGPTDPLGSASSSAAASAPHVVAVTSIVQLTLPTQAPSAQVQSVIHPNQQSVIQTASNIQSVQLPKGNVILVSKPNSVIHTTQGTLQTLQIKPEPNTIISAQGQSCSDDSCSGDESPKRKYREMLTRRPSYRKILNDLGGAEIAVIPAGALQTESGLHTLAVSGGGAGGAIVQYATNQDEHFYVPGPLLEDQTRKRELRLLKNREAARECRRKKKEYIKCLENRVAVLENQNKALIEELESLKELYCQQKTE
Test: EMSA; shift competed by 100-fold unlabeled PS; EMSA (LightShift): 20 ul, 50 ng/ul poly(dI-dC), 2.5% glycerol, 5 mM MgCl2, 0.05% NP40, 20 fmol biotin probe, RT 20 min; pH and salt not stated. MPS (S22/S23) and NS competitors were tested only with brain nuclear extract without supershift, so not listed
Conditions: protein: ivt; chain copies: 2; blunt

B1: PS (PRMT1 promoter-specific probe) (dsDNA)
DNA 1: CGTTTTTGATATGAGGAAAATGAGCTCTGCAA
DNA 2: TTGCAGAGCTCATTTTCCTCATATCAAAAACG
Q: Does B1 bind?
A: binds
